Experimental data: patent US20250136718A1 (MABWELL THERAPEUTICS, published 2025)

Key:
[1] = molecular target: T1, cynomolgus monkey TMPRSS6 expressed on HEK293T cells, CynoTMPRSS6-(His)6 (cynomolgus monkey, UniProt Q8IU80 10-811 (human entry)); assay: summary of Example 4 (FACS, cell surface ELISA)
T1 chain: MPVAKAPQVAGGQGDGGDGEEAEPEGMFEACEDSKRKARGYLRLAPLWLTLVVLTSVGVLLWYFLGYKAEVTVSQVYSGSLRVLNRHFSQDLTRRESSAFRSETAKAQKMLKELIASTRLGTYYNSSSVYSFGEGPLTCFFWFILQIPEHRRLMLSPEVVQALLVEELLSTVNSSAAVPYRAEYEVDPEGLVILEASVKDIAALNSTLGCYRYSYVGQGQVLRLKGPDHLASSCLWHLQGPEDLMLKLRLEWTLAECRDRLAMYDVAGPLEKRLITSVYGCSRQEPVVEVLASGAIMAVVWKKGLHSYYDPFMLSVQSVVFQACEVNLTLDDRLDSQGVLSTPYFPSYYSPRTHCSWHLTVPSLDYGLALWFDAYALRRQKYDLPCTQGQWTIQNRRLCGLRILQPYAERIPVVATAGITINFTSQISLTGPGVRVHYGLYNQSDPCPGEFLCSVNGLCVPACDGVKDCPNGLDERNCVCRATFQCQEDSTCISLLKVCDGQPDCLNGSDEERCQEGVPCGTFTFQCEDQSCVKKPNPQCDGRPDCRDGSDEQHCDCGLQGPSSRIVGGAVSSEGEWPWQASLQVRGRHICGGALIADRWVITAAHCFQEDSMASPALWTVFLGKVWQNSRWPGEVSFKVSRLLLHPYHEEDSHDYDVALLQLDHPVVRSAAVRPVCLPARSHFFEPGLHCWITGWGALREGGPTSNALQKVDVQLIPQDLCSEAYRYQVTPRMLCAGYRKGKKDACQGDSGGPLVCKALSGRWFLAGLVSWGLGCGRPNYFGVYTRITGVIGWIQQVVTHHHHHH
Protocol: Selected anti-TMPRSS6 antibodies were tested to determine whether any are capable of binding to TMPRSS6 from mouse and/or cynomolgus monkey. HEK293T cells stably expressing human TMPRSS6 (HuTMPRSS6-(His)₆) (generated by LakePharma Inc as described above), HEK293T cells stably expressing mouse TMPRSS6 (MoTMPRSS6-(His)₆) (SEQ ID NO: 98) (generated by LakePharma Inc as described above) and HEK293T cells transiently expressing cynomolgus monkey TMPRSS6 (CynoTMPRSS6-(His)₆) (SEQ ID NO: 99) (generated in house) were collected. HEK293T cells stably expressing human TMPRSS6 were used as a positive control and HEK293T cells were used as a negative control (as described above). Cells were blocked with dPBS+3% BSA before incubation with anti-TMPRSS6 antibodies diluted in dPBS+3% BSA. After incubation, cells were washed with dPBS and followed by another incubation with goat anti-mouse IgG conjugated with AlexaFluor-488 as a 2° antibody (Invitrogen). At last, cells were washed with dPBS to remove unbound antibody, re-suspended with dPBS+1 mM EDTA, and then subjected to FACS analysis using a NOVOCYTE® Flow Cytometer (ACEA Biosciences, Inc., San Diego CA). Bound antibody was determined by excitation at 488 nm and measurement of emission (FITC-A) at 530 nm. Results for these assays are shown in histogram plots in FIGS. 4A-4I.
(§1) HEK293T cells stably expressing mouse TMPRSS6 (generated by LakePharma Inc as described above, FIGS. 4J, 4L, 4N, 4P, 4R, 4T) or cynomolgus monkey (generated in house as described above, FIGS. 4K, 4M, 4O, 4Q, 4S, 4U) were fixed with methanol (100%), and washed with dPBS (Dulbecco's phosphate-buffered saline, Corning Cellgro) before incubation with various concentrations of anti-TMPRSS6 antibodies and their humanized variants diluted in BSA medium (DMEM+1% Pen/Strep+10 mM HEPES+1 mg/ml BSA (Sigma-Aldrich)). Purified mouse IgG (FIGS. 4J-4O) or Human IgG1 (FIGS. 4P-4U) was used as a control.

[2] = molecular target: T1, cynomolgus monkey TMPRSS6 expressed on …; assay: summary of Example 4 (cell surface ELISA)
Protocol: as §1, with “control. After incubation, cells were washed with BSA medium and then incubated with goat anti-mouse (Invitrogen, FIGS. 4J-4O) or anti-human (Millipore, FIGS. 4P-4U) IgG conjugated with HRP as a 2° antibody. Finally, cells were washed with dPBS to remove unbound antibody and color developed with ELISA liquid substrate (Sigma-Aldrich), followed by stopping the reaction with addition of the same volume of […] 1M H₂SO₄. Bound antibody was measured by absorbance at OD₄₅₀ₙₘ.” for “control.”

[3] = molecular target: T2, cynomolgus monkey TMPRSS6 expressed on HEK293T cells, CynoTMPRSS6-(His)6; assay: cell surface ELISA
T2 chain: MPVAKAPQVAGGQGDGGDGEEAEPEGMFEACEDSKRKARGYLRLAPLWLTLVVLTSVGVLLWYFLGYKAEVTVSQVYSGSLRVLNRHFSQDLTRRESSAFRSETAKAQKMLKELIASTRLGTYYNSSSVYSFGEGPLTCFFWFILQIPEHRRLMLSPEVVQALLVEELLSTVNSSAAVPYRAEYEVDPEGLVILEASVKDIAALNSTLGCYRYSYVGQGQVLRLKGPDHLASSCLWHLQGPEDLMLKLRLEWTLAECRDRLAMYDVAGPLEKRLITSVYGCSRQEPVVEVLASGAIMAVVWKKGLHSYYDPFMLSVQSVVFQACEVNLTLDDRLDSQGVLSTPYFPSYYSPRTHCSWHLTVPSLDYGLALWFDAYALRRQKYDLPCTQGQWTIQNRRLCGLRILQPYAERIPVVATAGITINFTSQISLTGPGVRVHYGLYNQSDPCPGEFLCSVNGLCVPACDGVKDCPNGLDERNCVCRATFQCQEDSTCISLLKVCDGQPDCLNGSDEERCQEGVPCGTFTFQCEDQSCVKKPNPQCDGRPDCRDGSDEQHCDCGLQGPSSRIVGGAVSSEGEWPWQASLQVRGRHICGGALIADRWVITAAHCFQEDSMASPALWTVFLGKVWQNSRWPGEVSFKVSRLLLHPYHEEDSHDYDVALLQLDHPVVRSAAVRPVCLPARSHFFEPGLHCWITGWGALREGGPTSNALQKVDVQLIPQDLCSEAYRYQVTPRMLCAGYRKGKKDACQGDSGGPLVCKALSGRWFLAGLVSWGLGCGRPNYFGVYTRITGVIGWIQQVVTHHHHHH

Binder	binding result [1]	binding result [2]	EC50 [3] [µg/mL]
MWTx-003 anti-TMPRSS6 monoclonal antibody (antibody, mouse IgG2b, kappa, V domains shown, Mouse monoclonal antibody from hybridoma (ATCC PTA-126761); The recombinant version r4K12B has the same HC and LC; also called r4K12B; recombinant MWTx-003) VH: EVQLQQSGAELVKPGASVKLSCTASGFNIEDYYIHWVKERTEQGLEWIGRIDPEDGETTYAPQFQGKATIIPDTSSNTAYMQLSSLTSEDAAVYYCARSIYLDPMDYWGQGTSVTVSS VL: DIVMTQSHKFMSTSVGDRVSITCKASQDVTTAVAWYQQKPGQSPKILIYWATTRHTGVPDRFTGSISGTTYILTISSVQAEDLALYYCQQHYSTPYTFGGGTKLEIKR	binds		
humanized anti-TMPRSS6 antibody variant hzMWTx-001 Var (antibody, human IgG1, kappa, N297A, V domains shown, Human IgG1 / kappa) VH: EVQLVQSGAEVKKPGASVKVSCKASGYTFTSYWITWVRQAPGQRLEWIGNIYPGSGSTYYNEKFKSKATITRDTSSRTAYMELSSLRSEDTAVYYCAPYDADYAMDYWGQGTLVTVSS VL: DIQMTQSPSSLSASVGDRVTITCKASQDISNYLSWFQQKPGKAPKLLIYRANRLVEGVPSRFSGSGSGTDFTLTISSLQPEDFATYFCLQYDEFPLTFGGGTKVEIKR		binds	0.003
MWTx-002 anti-TMPRSS6 monoclonal antibody (antibody, mouse IgG2b, kappa, V domains shown, Mouse monoclonal antibody from hybridoma (ATCC PTA-126760)) VH: EVQLQQSGAELVKPGASVKLSCTASGFNIKDYYIHWVKERTEQGLEWFGRIDPEDGESEYAPKFQGKATLTADTSSNTAYLQLSSLTSEDTAVYYCTRGDSMMVTYFDYWGQGTTLTVSS VL: DIVMTQSHKFMSTSVGDRVSITCKASQDVSTAVAWYQQKPGQSPKLLIYWAFTRHTGVPDRFTSTGSGTDYALTISSVQAEDLALYYCQQHYRSPWTFGGGTKLEIKR	binds		
humanized anti-TMPRSS6 antibody variant hzMWTx-002 Var (antibody, human IgG1, kappa, N297A, V domains shown, Human IgG1 / kappa) VH: EVQLVQSGAEVKKPGASVKVSCKASGFNIKDYYIHWVRQATGQGLEWMGRIDPEDAESEYAPKFQGRVTITADTSTDTAYMELSSLRSEDTAVYYCTRGDSMMVTYFDYWGQGTLVTVSS VL: DIQMTQSPSSLSASVGDRVTITCKASQDVSTAVAWYQQKPGKAPKLLIYWAFTRHTGVPSRFSGSGSGTDYALTISSLQPEDFATYYCQQHYRSPWTFGGGTKVEIKR		binds	0.06
MWTx-001 anti-TMPRSS6 monoclonal antibody (antibody, mouse IgG2a, kappa, V domains shown, Mouse monoclonal antibody from hybridoma (ATCC PTA-126759)) VH: QVQLQQPGAELAKPGASVKMSCKASGYTFTSYWITWVKQRPGQDLEWIGNIYPGSGSTYYNEKFKSKATLTVDTSSRTAYMQLSSLTSADSAVYYCAPYDSDYAMDYWGQGTSVTVSS VL: DIKMTQSPSSMYASLGERVTITCKASQDINNYLSWFQQKPGKSPKTLIYRANRLVDGVPSRVSGSGSGQDYSLTISSLEYEDVGIYFCLQYDEFPLTFGAGTKLELKR	binds		
humanized anti-TMPRSS6 antibody variant hzMWTx-003 Var (antibody, human IgG1, kappa, L234A L235A, V domains shown, Human IgG1 / kappa) VH: QVQLVQSGAEVKKPGASVKVSCKASGFNIEDYYMHWVRQAPGQRLEWMGRIDPEDAETTYSPKFQGRVTIIPDTSANTAYMELSSLRSEDTAVYYCARSIYLDPMDYWGQGTLVTVSS VL: DIQMTQSPKSLSASVGDRVTITCRASQDVTTALAWYQQKPGQSPKLLIYWATTRHSGVPSRFSGSGSGTDFTLTISSLQPEDFATYYCQQHYSTPYTFGQGTKLEIKR		binds	0.03
